Columns and labels:
[1] = tested on: J32/FcγRIIA and J32-3.2/FcγRIIA T-cell transfectants; assay: inhibition of sEA phagocytosis in FcγRIIA T-cell transfectants; assay type: cell-based; details: preincubation of the cells in 10 μg/ml
Procedure: The ability of these T-cell transfectants to phagocytose IgG-sensitized cells was assessed by incubation with IgG coated sheep erythrocytes (sEA). In both the wild type J32 and mutant J32-3.2 transfectants, a number of the cells were able to phagocytose the sEA (FIG. 12).
Considering that 70%-100% of the cells are expressing FcγRIIA in these transfectants, and presumably are mediating phagocytosis through this receptor, the levels of phagocytosis observed are relatively low when compared, for example, to COS-1 fibroblasts transfected with FcγRIIA (Indik et al, J. Clin. Invest. 88:1766 (1991)). […] Also phagocytosis was inhibited when the transfectants were incubated with sEA at 0° C. instead of 37° C.

[2] = target: FcγRIIA (UniProt P12318); assay: cell-based or functional assay
[3] = target: FcγRIIA (UniProt P12318)
[4] = tested on: murine macrophages (P388D1); assay: phagocytosis by WT FcγRI transfected into murine macrophages; assay type: cell-based
Procedure: Wild type (WT) and a mutant (MT) FcγRI, engineered to omit the cytoplasmic domain (CYT), were transfected into COS cells and murine macrophages (P388D1). The phagocytic potential of the transformed cells was assessed using IgG-coated RBCs (EA) and RBCs conjugated with Fab anti-human FcγR1 mAb (E-mAb). […] However, both WT and MT FcγRI induced phagocytosis in P388D1. Phagocytosis by WT FcγRI was inhibited by the tyrosine kinase inhibitor tyrphostin 23. Furthermore, activation of FcγRI on monocytes with Fab anti-FcγRI induced tyrosine phosphorylation of FcγRII, determined by anti-phosphotyrosine immunoblots. FcγR1 thus mediates a Ca^2+ signal through its cytoplasmic domain but not phagocytosis. FcγRI induced phagocytosis therefore requires elements, present in macrophages but absent in COS cells, that permit transmembrane communication.

[5] = tested on: COS-1 cells; assay: phagocytosis of IgG-coated cells (EA) by FcγRIIIA-transfected COS-1 cells, electron microscopy; assay type: cell-based; details: COS-1 transfectants
From the text: A FcγRIIIA encoding sequence was transfected into COS-1 cells to study its phagocytic function, determined by electron microscopy, in the absence of other Fc receptors. […] To delineate the region of the γ chain important in phagocytosis, two deletion mutants, were constructed, deleting the C-terminal 7 amino acids or deleting the C-terminal 22 amino acids which have a tyrosine containing conserved motif, Y-X2-L-X7-Y-X2-L (SEQ ID NO:10), present in several Ig gene super family receptors. […] The role of the conserved cytoplasmic tyrosines was then examined.
Further, single chain Fcγ receptor chimeras, consisting of the γ cytoplasmic domain and the a extracellular domain with the transmembrane domain of either FcγRIIIA-γ or FcγRI were able to mediate a phagocytic signal. However, single chain chimeras were not sufficient for full phagocytic activity.

[6] = tested on: FcγRII; details: cited from earlier work
[7] = target: γ chain (γ subunit of FcγRI and FcγRIIIA); assay: cell-based or functional assay
[8] = tested on: splenic macrophage Fcγ receptors; details: in vivo; cited from earlier work
[9] = tested on: splenic macrophage; assay: in vitro binding of EA by isolated splenic macrophages from treated animals; assay type: in vivo, guinea pig; details: animals treated 500 μg/kg for 5 days; sham 48±4%, p<0.001
Procedure: (§1) Human recombinant macrophage colony stimulating factor (hrM-CSF) was studied in vivo using an established model in the guinea pig (Schreiber et al, J. Clin. Invest. 51:575 (1972)). Adult male guinea pigs were treated for 5 days with hrM-CSF (500 μg/kg) and splenic macrophage FcγR function and protein expression were assessed by i) the splenic macrophage clearance of IgG sensitized ^51Cr-guinea pig RBC (EA), ii) the in vitro binding of EA by isolated splenic macrophage, and iii) FACS analysis using monoclonal antibodies with specificity for the two guinea pig splenic macrophage Fcγ receptors, FcγR1,2 and FcγR2. Treatment with hrM-CSF enchanced the clearance of EA by 72±5%. In addition, a greater proportion of isolated splenic macrophages from hrM-CSF treated animals bound EA in vitro: 80±7% vs 48±4% (sham), p<0.001. In vivo hrM-CSF increased the expression of both splenic macrophages Fcγ receptors: 81±6% and 130±10% for FcγR1,2 and FcγR2, respectively. The lowest effective dose of hrM-CSF was 250 μg/kg, increasing the expression of FcγR1,2 by 26±3% and FcγR2 by 42±4%. […] The effect of hrM-CSF required at least 4 days of treatment.

[10] = tested on: IgG sensitized 51Cr-guinea pig RBC (EA); assay: splenic macrophage clearance of IgG sensitized 51Cr-guinea pig RBC (EA), established guinea pig model; assay type: in vivo
Procedure: as §1

[11] = tested on: FcγR1,2; assay: FACS analysis of splenic macrophage Fcγ receptor expression with monoclonal antibodies; assay type: in vivo, guinea pig
Procedure: as §1

[12] = tested on: FcγR2; assay: as above; assay type: in vivo, guinea pig
Procedure: as §1

[13] = tested on: FcγRI and FcγRII; details: cited from earlier work

**Q.** Which “effect on phagocytosis of sEA” value [1] does the source give for `C=C1[C@@H](C)[C@H]2[C@H](Cc3ccccc3)NC(=O)[C@]23[C@H](OC(C)=O)/C=C/[C@@](C)(O)C(=O)[C@@H](C)C/C=C/[C@H]3[C@@H]1O` [cytochalasin-D] here?
**A.** abolished phagocytosis

**Q.** For “IgG on IgG-sensitized sheep red blood cells (EA) (antibody)”, which % phagocytic cells, J32-3.2/FcγRIIA bulk transfectants, experiment 2 [2] is on record?
**A.** 5%

**Q.** And the % phagocytic cells, J32-3.2/FcγRIIA bulk transfectants, experiment 3 [2]?
**A.** 13%

**Q.** And the % phagocytic cells, J32-3.2/FcγRIIA bulk transfectants, experiment 4 [2]?
**A.** 17%

**Q.** What about the % phagocytic cells, J32-3.2/FcγRIIA bulk transfectants, experiment 6 [2] of the same molecule?
**A.** 6%

**Q.** What about the % phagocytic cells, J32/FcγRIIA bulk transfectants, experiment 1 [2] of the same molecule?
**A.** 17%

**Q.** What about the % phagocytic cells, J32/FcγRIIA bulk transfectants, experiment 2 [2] of the same molecule?
**A.** 33%

**Q.** And the % phagocytic cells, J32/FcγRIIA bulk transfectants, experiment 3 [2]?
**A.** 25%

**Q.** What about the % phagocytic cells, J32/FcγRIIA bulk transfectants, experiment 4 [2] of the same molecule?
**A.** 32%

**Q.** And the % phagocytic cells, J32/FcγRIIA bulk transfectants, experiment 5 [2]?
**A.** 31%

**Q.** And the % phagocytic cells, J32/FcγRIIA bulk transfectants, experiment 6 [2]?
**A.** 14%

**Q.** What about the corrected phagocytic index (cP1), J32-3.2/FcγRIIA bulk transfectants, experiment 2 (erythrocytes ingested per 100 cells) [2] of the same molecule?
**A.** 7

**Q.** What about the corrected phagocytic index (cP1), J32-3.2/FcγRIIA bulk transfectants, experiment 3 (erythrocytes ingested per 100 cells) [2] of the same molecule?
**A.** 21

**Q.** And the corrected phagocytic index (cP1), J32-3.2/FcγRIIA bulk transfectants, experiment 4 (erythrocytes ingested per 100 cells) [2]?
**A.** 24

**Q.** And the corrected phagocytic index (cP1), J32-3.2/FcγRIIA bulk transfectants, experiment 6 (erythrocytes ingested per 100 cells) [2]?
**A.** 9

**Q.** And the percent of cells that phagocytosed EA, FcγRIIA-infected D58 (Src+) cells [2]?
**A.** 70 percent

**Q.** What about the percent of cells that phagocytosed EA, FcγRIIA-infected SAR6 (Src-) cells [2] of the same molecule?
**A.** 43 percent

**Q.** What about the phagocytic index (P1), J32-3.2/FcγRIIA bulk transfectants, experiment 2 (erythrocytes ingested per 100 cells) [2] of the same molecule?
**A.** 6

**Q.** What about the phagocytic index (P1), J32-3.2/FcγRIIA bulk transfectants, experiment 3 (erythrocytes ingested per 100 cells) [2] of the same molecule?
**A.** 18

**Q.** What about the phagocytic index (P1), J32-3.2/FcγRIIA bulk transfectants, experiment 4 (erythrocytes ingested per 100 cells) [2] of the same molecule?
**A.** 21

**Q.** What about the phagocytic index (P1), J32-3.2/FcγRIIA bulk transfectants, experiment 6 (erythrocytes ingested per 100 cells) [2] of the same molecule?
**A.** 8

**Q.** And the phagocytic index (P1), J32/FcγRIIA bulk transfectants, experiment 1 (erythrocytes ingested per 100 cells) [2]?
**A.** 28

**Q.** And the phagocytic index (P1), J32/FcγRIIA bulk transfectants, experiment 2 (erythrocytes ingested per 100 cells) [2]?
**A.** 22

**Q.** And the phagocytic index (P1), J32/FcγRIIA bulk transfectants, experiment 3 (erythrocytes ingested per 100 cells) [2]?
**A.** 40

**Q.** And the phagocytic index (P1), J32/FcγRIIA bulk transfectants, experiment 4 (erythrocytes ingested per 100 cells) [2]?
**A.** 53

**Q.** And the phagocytic index (P1), J32/FcγRIIA bulk transfectants, experiment 5 (erythrocytes ingested per 100 cells) [2]?
**A.** 51

**Q.** What about the phagocytic index (P1), J32/FcγRIIA bulk transfectants, experiment 6 (erythrocytes ingested per 100 cells) [2] of the same molecule?
**A.** 21

**Q.** For Src, which “in vitro immune complex kinase assay: phosphorylation of FcγRIIA” value [3] is on record?
**A.** FcγRIIA was phosphorylated by Src in this in vitro assay

**Q.** For `N#CC(C#N)=Cc1ccc(O)c(O)c1` [tyrphostin 23], which “effect on phagocytosis by WT FcγRI” value [4] is on record?
**A.** inhibited

**Q.** And the “effect on FcγRIIIA phagocytosis” value [5]?
**A.** reversibly inhibited phagocytosis

**Q.** Which “effect on monocyte FcγRII expression and function” value [6] does the source give for “GM-CSF: hematopoietic growth factor, granulocyte-macrophage colony-stimulating factor” here?
**A.** selectively increase monocyte FcγRII expression and function

**Q.** Which enhancement of phagocytosis mediated by FcγRI/γ on co-transfection of Syk in COS-1 cells [7] does the source give for Syk (enzyme) here?
**A.** 8 fold

**Q.** What about the enhancement of phagocytosis mediated by FcγRIIIA/γ on co-transfection of Syk in COS-1 cells [7] of the same molecule?
**A.** 6.1 fold

B1: M-CSF: hematopoietic growth factor, macrophage colony stimulating factor (protein, UniProt P09603 33-554, looked up)
Macrophage colony-stimulating …: EEVSEYCSHMIGSGHLQSLQRLIDSQMETSCQITFEFVDQEQLKDPVCYLKKAFLLVQDIMEDTMRFRDNTPNAIAIVQLQELSLRLKSCFTKDYEEHDKACVRTFYETPLQLLEKVKNVFNETKNLLDKDWNIFSKNCNNSFAECSSQDVVTKPDCNCLYPKAIPSSDPASVSPHQPLAPSMAPVAGLTWEDSEGTEGSSLLPGEQPLHTVDPGSAKQRPPRSTCQSFEPPETPVVKDSTIGGSPQPRPSVGAFNPGMEDILDSAMGTNWVPEEASGEASEIPVPQGTELSPSRPGGGSMQTEPARPSNFLSASSPLPASAKGQQPADVTGTALPRVGPVRPTGQDWNHTPQKTDHPSALLRDPPEPGSPRISSLRPQGLSNPSTLSAQPQLSRSHSSGSVLPLGELEGRRSTRDRRSPAEPEGGPASEGAARPLPRFNSVPLTDTGHERQSEGSFSPQLQESVFHLLVPSVILVLLAVGGLLFYRWRRRSHQEPQRADSPLEQPEGSPLTQDDRQVELPV
**Q.** For B1, which “effect on splenic macrophage Fcγ receptors” value [8] is on record?
**A.** increase splenic macrophage Fcγ receptors

B2: hrM-CSF: Human recombinant macrophage colony stimulating factor (protein, UniProt P09603 33-554, looked up)
Macrophage colony-stimulating …: EEVSEYCSHMIGSGHLQSLQRLIDSQMETSCQITFEFVDQEQLKDPVCYLKKAFLLVQDIMEDTMRFRDNTPNAIAIVQLQELSLRLKSCFTKDYEEHDKACVRTFYETPLQLLEKVKNVFNETKNLLDKDWNIFSKNCNNSFAECSSQDVVTKPDCNCLYPKAIPSSDPASVSPHQPLAPSMAPVAGLTWEDSEGTEGSSLLPGEQPLHTVDPGSAKQRPPRSTCQSFEPPETPVVKDSTIGGSPQPRPSVGAFNPGMEDILDSAMGTNWVPEEASGEASEIPVPQGTELSPSRPGGGSMQTEPARPSNFLSASSPLPASAKGQQPADVTGTALPRVGPVRPTGQDWNHTPQKTDHPSALLRDPPEPGSPRISSLRPQGLSNPSTLSAQPQLSRSHSSGSVLPLGELEGRRSTRDRRSPAEPEGGPASEGAARPLPRFNSVPLTDTGHERQSEGSFSPQLQESVFHLLVPSVILVLLAVGGLLFYRWRRRSHQEPQRADSPLEQPEGSPLTQDDRQVELPV
**Q.** With B2 as the molecule, how does the “proportion of isolated splenic macrophages that bound EA in vitro” value [9] read?
**A.** 80±7%

**Q.** What about the “enhancement of the clearance of EA” value ([10]; adult male guinea pigs, 500 μg/kg for 5 days) of the same molecule?
**A.** 72±5%

**Q.** And the “days of treatment required for the effect” value ([10]; guinea pig)?
**A.** at least 4 days

**Q.** And the lowest effective dose ([10]; guinea pig)?
**A.** 0.25 mg/kg

**Q.** What about the “increase in expression of FcγR1,2” value ([11]; 250 μg/kg) of the same molecule?
**A.** 26±3%

**Q.** What about the “increase in expression of splenic macrophage FcγR1,2” value ([11]; 500 μg/kg for 5 days) of the same molecule?
**A.** 81±6%

**Q.** What about the “increase in expression of FcγR2” value ([12]; 250 μg/kg) of the same molecule?
**A.** 42±4%

**Q.** And the “increase in expression of splenic macrophage FcγR2” value ([12]; 500 μg/kg for 5 days)?
**A.** 130±10%

B3: IFN-γ: the cytokine interferon gamma (protein, UniProt P01579 24-161, looked up)
Interferon gamma: QDPYVKEAENLKKYFNAGHSDVADNGTLFLGILKNWKEESDRKIMQSQIVSFYFKLFKNFKDDQSIQKSVETIKEDMNVKFFNSNKKKRDDFEKLTNYSVTDLNVQRKAIHELIQVMAELSPAAKTGKRKRSQMLFRG
**Q.** For B3, which “effect on levels of FcγRI and FcγRII” value [13] is on record?
**A.** modulate the levels of FcγRI and FcγRII
